Reference: the nanobody polyreactivity screen of Harvey et al. (2022)

assay: yeast display, Sf9 membrane polyspecificity reagent, FACS + sequencing; frameworks hold sequencing errors
Method in brief: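 Nanobodies from a synthetic yeast display library (Saccharomyces cerevisiae BJ5465), induced 36–48 hours with galactose, were stained 1 hour at 4 °C with 10% biotinylated, detergent-solubilized Sf9 membrane reagent, enriched on streptavidin microbeads, then FACS-sorted. Anti-HA (expression) and streptavidin (reagent binding) fluorescence set low and high (top ~1%) gates. Polyreactivity labels come from the gate of origin. Genes were colony-PCR amplified, MiSeq 2 × 250 sequenced and filtered by CDR length.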

Sequence	polyreactivity (PSR sort gate)
QVQLVESGGGLVQAGGSLRLSCAASGFTFVAYAMGWYRQAPGKERELVAAISKSGGSTYYADSVKGRFTISRDNAKNSVYLQMNRLKPEDTAVYYCAARYYAYRSDYWGQGTQVTVSS	high polyreactivity
QVQLVESGGGLVQAGGSLRLSCAASGFTFVDNAMGWYRQAPGKERELVAVIDFNDGTTYYADSVKGRFTISRDNAKNTVYLLMNSLKPEDTEVYYCNVDSSLILWVEYDYWGQGTQVTVSS	low polyreactivity
QVQLVESGGGLVQAGGSLRLSCAASGFTFVFYAMGWYRQAPGKERELVAAINSGGSTYYADSVKGRFTISRDIAKNTDYLQMNSLKPEDTAVYYCAKGSYGPSAGYGRRYYYWGQGTQVTVSS	high polyreactivity
QVQLVESGGGLVQAGGSLRLSCAASGFTFVIHDMGWYRQAPGKERELVADITSGGDTYYADSVKGRFTISRDNAKNTVYLQMNSQKPEDTAVYYCAADIYPDWIYLLYGYWGQGTQGTVSS	low polyreactivity
QVQLVESGGGLVQAGGSLRLSCAASGFTFVINYMGWYRQAPGKERELVADITSGGDTYYADSVKGRFTISRDNAKNTVYLQMNSLNPEDTAVYYCAADIYPDWIYLLYGYWGQVTQVTVSS	low polyreactivity
QVQLVESGGGLVQAGGSLRLSCAASGFTFVNYAMGWYRQAPGKERELVAAISSGGRTYYADSVKGRFTISRDNAKNTVYLQMNSLKPEDTAVYYCAARYKGRAIWMDYWGQGTQVTVSS	high polyreactivity
QVQLVESGGGLVQAGGSLRLSCAASGFTFVNYARGWYRQAPGKERELVAAIRRSGSRTYYADSVKGRFTISRDNAKNTVYLQMHSLKPEDTAVYYCAAVWYRLYGYWGQGTQVTVSS	low polyreactivity
QVQLVESGGGLVQAGGSLRLSCAASGFTFVPYARGWYRQAPGKDREWVAAISRRGGSTYYADSVKGRFTISRDYAKNTVYLQMNSLKPEDTAVYYCAKDGPGGGTRIYDYWGQGTQVTVSS	high polyreactivity
QVQLVESGGGLVQAGGSLRLSCAASGFTFVQYAMGWYRQAPGKERELVATISKSGGITYYADSVKGRFTISRDNAKNTVYLQMNSLKPEDNAVYYCAAAWYYSSRGFHATWGHDYWGQGTQVTVSS	low polyreactivity
QVQLVESGGGLVQAGGSLRLSCAASGFTFVRYAMGWYRQAPGKERELVAAISRGGGRTSYADSVKGRFTISRDNAKNTVYLQMNSLKPEDTAVYYCATGTYAAAQGTRYYYLGQGTQVTVSS	high polyreactivity
QVQLVESGGGLVQAGGSLRLSCAASGFTFVRYAMGWYTQAPGKERELDAAITRGGGSTYYADSVKGRFTISRDYAKNTVYLQMNSLKPEDTAVYYCAKGPGRPVSYEIPYKYNYWGQGTHVTVSS	high polyreactivity
QVQLVESGGGLVQAGGSLRLSCAASGFTFVRYTMGWYRQAPGKERELVAAITSGGSTTYADSVKGRFTISRDNAKNTVYLQMNSLKPEDTAVYYCNAVFYLQYETGRELDYWGQGTQVTVSS	high polyreactivity
QVQLVESGGGLVQAGGSLRLSCAASGFTFVSNAMGWYRQAPGKEREMVADITSDGSTNYADSVKGRFTISRDNAKNTVSLQMNSLKPEDTAVYYCNADASYGFWSLLHYDYWGQATQVTVSS	low polyreactivity
QVQLVESGGGLVQAGGSLRLSCAASGFTFVSYTMGWYRQAPGKERELVAVITKRGGSTYYADSVKGRFTISRDNAKNTVYLQLNCLKPEDTAVYYCNAVQAYKSPSLPLAGGNYWGQGTQVTVSS	high polyreactivity
QVQLVESGGGLVQAGGSLRLSCAASGFTFVYNAMGWYRQAPGKERELVAAITSGGNTYYADSVKGRFTISRDNAKNTVYLQMNSLKPEDTAVYYCAKRGYGRYYAYDYWGQGTQVTVSS	high polyreactivity
QVQLVESGGGLVQAGGSLRLSCAASGFTFVYYDMGWYRQAPGKERELVAAISRSGGSTYYADSVKGRFTISRDNAQNTVYLQMNSLKPEDTAVYYCAAGKNYGSRLSYEYWGQGTQVTVSS	high polyreactivity
QVQLVESGGGLVQAGGSLRLSCAASGFTFVYYVMGWYRQAPGKERELVAAITRRGGNTYYADSVKGRFTISRDNAKNTVYLQMNSLKPEDTAVYYCNAVLRYGHGPYQKGDYWGQGTQVTVSS	high polyreactivity
QVQLVESGGGLVQAGGSLRLSCAASGFTFWHYAMGWYRQAPGKERELVAAITWDGGSTYYADSVKGRFTISRDNAKNTFYLQMQSLKPEDNAVYYCAKLFGGTYYEYDYWGQGTQVTVSS	low polyreactivity
QVQLVESGGGLVQAGGSLRLSCAASGFTFWLYAMGWYRQATGKERELVAAIDWDGGTYYADSVKGRFTISRDNAKNTVYLQMNSLKPEDTAVYYCAARYRYYYTRYDYWGQGTQVTVSS	high polyreactivity
QVQLVESGGGLVQAGGSLRLSCAASGFTFWRNAMGWYRQAPGKERELVAAISWRGGSTYYADSVKGRFTISRDNAKNTVYLQMNSLKPEDTAVYYCNALHWQSKELDYYWGQGTQVTVSS	high polyreactivity
QVQLVESGGGLVQAGGSLRLSCAASGFTFWRYAMGWYIQAPGKERELVAAISYSGGRTYYADSVKGRFTISRDNAKNTVYLQMNSLKPEDTAVYYCAASRVTYGGPYRDDYDYWGQGTQVTVSS	high polyreactivity
QVQLVESGGGLVQAGGSLRLSCAASGFTFWRYAMGWYREAPGKERELVAAITGLGRTNYADSVKGRFTISRDNAKNTVYLQMNSLKPEDTADYYCNVVRVYRYDYWGQGTQVTVSS	high polyreactivity

Sequence	polyreactivity (PSR sort gate)
QVQLVESGGGLVQAGGSLRLSCAASGFTFWRYAMGWYRQAPGKEREFVAVISISSGTTYADSVKGRFTITRDNAKNTVYLQMNSLKPEDTAVYYCAAAIGVYYIEYRYLGTVEYWGQGTQVTVSS	low polyreactivity
QVQLVESGGGLVQAGGSLRLSCAASGFTFWRYAMGWYRQAPGKERELVAAISRTGGRTYYADSVKGRFTISRDNAKNTVYLQMNSLKPEDTAVYYCAADWLYDYGEYYYWGQGTQVTVSS	high polyreactivity
QVQLVESGGGLVQAGGSLRLSCAASGFTFWRYAMGWYRQAPGKERELVAAITWSGGRTYYADSVKGRFTISRDNAKNTVYLQMNSLKPEDTAVYYCNVDAYGYRPYRYYYWGQGTQVTVSS	high polyreactivity
QVQLVESGGGLVQAGGSLRLSCAASGFTFWTYAMGWYRQAPGKERELVAAIDSGGSTYYADSVKGRFTITRDNAKNTVYLQMNSLKPEDTAVYYCNAGPSVTSGYDYDYWGQGTQVTVSS	low polyreactivity
QVQLVESGGGLVQAGGSLRLSCAASGFTFWYYAMGWYRQAPGKERELVAAISSGSSTNYADSVKGRFTISRDNPKNTVYLQMNSLKPEDTAVDYCAADKYPSSPYVGDVDYWGQGTQVTVSS	high polyreactivity
QVQLVESGGGLVQAGGSLRLSCAASGFTFWYYAMGWYRQAPGKERELVAGIDSGGSTYYADSVKGRFTISRDNAKNTVYFQMNSLKPEETAVYYCAARPDQGLAYSPLPWYNYWGQGTQVTVSS	low polyreactivity
QVQLVESGGGLVQAGGSLRLSCAASGFTFWYYAMGWYRQAPGKERELVASISASGGRTNYADSVKGRFTISRDNAKNTVYLQMNSLKPEDTAVYYCAACRVRYSYGYPYYYWGQGTQVTVSS	high polyreactivity
QVQLVESGGGLVQAGGSLRLSCAASGFTFWYYAMGWYRQAPGKERELVASISRTGGTTYYADSVKGRFTISRDNAKNTVYLQMNSLKPEDTAVYYCNARPKVYYREYDYWGQGTQVTVSS	high polyreactivity
QVQLVESGGGLVQAGGSLRLSCAASGFTFYAYAMGWYRQAPGKERELVAAISGSGGRTYYADSVKGRFTISRDNAKNTVYLQMNSLKPEDTAVYYCAADRPGGSYDYWGQGTQVTVSS	high polyreactivity
QVQLVESGGGLVQAGGSLRLSCAASGFTFYFYAMGWYRQAPGKERDLVAAINSGDSTYYADSVKGRFTISSDNEKNTVYLQMNSLKPEDTAVYYCSAAQFIQLRDYWGQGTQVTVSS	high polyreactivity
QVQLVESGGGLVQAGGSLRLSCAASGFTFYGYAMGWYRQAPGKEREFVADISSRDGSTYYADSVKGRFTISRDNAKNTVYLQMNSLKPEDTAVYYCAADSGQYKWSDYDYWGQGTQVTVSS	low polyreactivity
QVQLVESGGGLVQAGGSLRLSCAASGFTFYGYAMGWYRQAPGKERELVAAISSSGGRTYYADSVKGRFTISRDNSKNTVYLQMNSLKPEDTAVYYCAADYTSRDYYYWGQGTQVTVSS	high polyreactivity
QVQLVESGGGLVQAGGSLRLSCAASGFTFYGYAMGWYRQAPGKERELVADISYRGGSTYYADSVKGRFTISRDNAKNTVYLQMNRLKPEDTAVYYCAARATPTYYAGQREDYNYWGQGTQVTVSS	high polyreactivity
QVQLVESGGGLVQAGGSLRLSCAASGFTFYHNAMGWYRPAPGKERELVAAITWDSGSTYYADSVKGRFTISRDNAKNTAYLQMNSLKPEDPAVYYCAADIASGYYWYDYWGQGTQVTVSS	low polyreactivity
QVQLVESGGGLVQAGGSLRLSCAASGFTFYHNTMGWYRQAPGKEREFVATINFIGGSTYYADSVKGRFTISRDNAKNTVYLQMNSLKPEDTAVYYCNARSRYLYFLRFDYWGQGTQVTVSS	high polyreactivity
QVQLVESGGGLVQAGGSLRLSCAASGFTFYHYAMGWSRQAPGKESELVATISKRGGSTYYADSVKGRFTISRDNAKNTVYLQMNSLKPQDTAVFYCAAKIYWSSLKMDYWGQGTQVTVSS	high polyreactivity
QVQLVESGGGLVQAGGSLRLSCAASGFTFYIYAMGWYRQAPGKERELVAAISSGGGRTYYADSVKVRFTISRDNAKNTVYLQMTSLKPEDTAVYYCAARGRAFSYKNYGSDYWGQVTQVTVSS	high polyreactivity
QVQLVESGGGLVQAGGSLRLSCAASGFTFYKKTMGWYRQAPGKERELVAAISSSGSSTYYADAVKGRVTISRDNAKNTVYLQMNSLKPEDSAVEYCAAGRFAYHDDYWGQGTQVTVSS	high polyreactivity
QVQLVESGGGLVQAGGSLRLSCAASGFTFYKNAMGWYRQAPGKERELVARITGRGGSTYYADSVKGRFTISRDNAKNTVYLQMNSLKPEDTAVYYCAVDGLVWRNRGFDYWGQGTQVTVSS	high polyreactivity
QVQLVESGGGLVQAGGSLRLSCAASGFTFYKYAMGCYRQPPGKERELVAAITGRGGSTYYADSVKGRFTISRDNAKNTVYLQMNILKPEDTAVYYCAARTPSYEMDYWGQGTQVTVSS	high polyreactivity
QVQLVESGGGLVQAGGSLRLSCAASGFTFYKYAMGWYRQAPGKERELVAAISYRGGRTYYADSVKGRFTISRDNAKNTVYLQMNSLKPEDTAVYYCAARGYVWNIGRYYWGQGTEVTVSS	high polyreactivity
